From a protein production outcome set (Wang et al. 2014)

Experiment: label from the status in PepcDB records

MSLSFTPLHTTSEAFIEKALPWLEDRYFHIAYLNPNGYTAYPQGAFRHYLAFGSEAAIHVSDATRVFETWNEIKKGYTNEWIFVFASYDGKNSVEQLHTSKEAGIAFAAATFFIPEHVWEIQPDGILIHKGSGSSLVTEIQHAEPSTPVQQSDIFVKQVVSKESYFNAFDELQQIIAQGDAYEINYCIPFTAKGNISPAATYQRLNKKTPMPFSVYYKFNTEYILSASPERFIKKTGDTIISQPIKGTSKRGKSKAEDEMLKQQLGTSEKEQSENTMIVDLVRNDLSRTAVAGSVCVPELSGLYTFPNVHQLISTVQSTIDPACSSIDVIQQAFPMGSMTGAPKVNVMKFIDRIESMARGPFSGTVGYMDPHDNFDFNVLIRSIFYNSATQELFMEAGSAITSYAKAETEYEECLLKITPMIHILNNQEGHHHHHH
protein production: not failed

MINKPNQFVNHLSALKKHFASYKELREAFNDYHKHNGDELTTFFLHQFDKVMELVKQKDFKTAQSRCEEELAAPYLPKPLVSFFQSLLQLVNHDLLEQQNAALASLPAAKIIELVLQDYPNKLNMIHYLLPKTKAFVKPHLLQRLQFVLTDSELLELKRFSFFQALNQIPGFQGEQVEYFNSKLKQKFTLTLGEFEIAQQPDAKAYFEQLITQIQQLFLKEPVNAEFANEIIDAFLVSYFPLHPPVPLAQLAAKIYEYVSQIVLNEAVNLKDELIKLIVHTLYEQLDRPVGDEN
protein production: not failed

MQNTPVILFDLDGTLIDSTEAVYEGFCVAFEKNGGAIPSQGKVVELIGHTLEDMFLRLGVPEVNITQHVLDYKAHYRIISKPKTNLLPKAREAILEASKFATLGVVTTKTGRFSRELLEYFEVLHFFKSIVGREDVTNAKPHPEPIFKALSEIGIKEVSAWMVGDTPLDLLAAQEAGIKSVAVLSGYAEEEMLRKYTLNVSKD
protein production: failed

VSEEEIRMLVAESHEAGVIDAHERDMMNRVMRLGDRTADSLMTPRNRIAWLDANAEPERNLHVMREHEFSRYPVYRGSDQDIAGVLEVKSLVTRMDGHGAQLFQNLRDTLFVSESTHAMKLLEIFREEQQSMALVVDEYGEIRGLVTISDLMGAVVGRLQSVENTDD
protein production: failed

DHPEEGDTAPDFTRPLVNDEFWEDESLASVCADSDRVVLVFHAMDGAFPATYIWNEIRDRAWHEQATVVGISISTPYEHKQLLKEREIEGDYRLFSDPANGVAQQYSIDMALDGMAGIEEPRPSVFVLDSDRTIEYAWVAQEWPDFPDYDDVEAQL
protein production: failed

MAIYTVKALITDPIDEILIKTLREKGIQVDYMPEISKEELLNIIGNYDIIVVRSRTKVTKDVIEKGKKLKIIARAGIGLDNIDTEEAEKRNIKVVYAPGASTDSAVELTIGLMIAAARKMYTSMALAKSGIFKKIEGLELAGKTIGIVGFGRIGTKVGIIANAMGMKVLAYDILDIREKAEKINAKAVSLEELLKNSDVISLHVTVSKDAKPIIDYPQFELMKDNVIIVNTSRAVAVNGKALLDYIKKGKVYAYATDVFWNEPPKEEWELELLKHERVIVTTHIGAQTKEAQKRVAEMTTQNLLNAMKELGMI
protein production: not failed

MPSDSLRVGVLTGGGDCPGINAALRAVTKSLTLQHDAEVLGFLDGFRGVVDRNVEPLHYRDVSGILTRGGTILGASNKADPFNYLPRGGADVSAQVMRTYRTLDLDALVAIGGDGTMSIAHRLTDLGVDIVGVPKTIDNDLVGTDRTVGFDTAVSTATDAIDRIHTTAQSHHRVMIVETMGRYSGWIALHAGVASGTDVILLPEIEYEVETVADVCRDRERSGQRFTIVAVAEGARRKEGDYVVQERGDEYTDSIRLGGISRVLADQLREHLDTSIRTTVLGHMQRGGSPTAYDRTLATTLGTRAATLVAEGTTGVMVAVQNDAFTQVPLDEIAGKTRTVPLDDPLIASGLDVGTSFGVAVSDLSEAASHSKPASPIQP
protein production: failed

KVILYARVSSSTQKDELVNQVKYLEEQVKEYDLVITDIGSGLNMKRKGFLKLLRMILNNEVSRVVVAYPDRLVRVGFEILEEVCKAHNCEIVVLNQEDKEEELVEDLMSALVSFSGKLYGMRSHEYEKVKKCAEELKNW
protein production: not failed

MIQCEECLCWQHSVCMGLLEESIPEQYICYICRDPPGQRWSAKYRYDKEWLNNGRMCGLSFFKENYSHLNAKKIVSTHHLLADVYGVTEVLHGLQLKIGILKNKHHPDLHLWACSGKRKDQDQIIAGVEKKIAQDTVNREEKKYVQNHKEPPRLPLKMEGTYITSEHSYQKPQSFGQDCKSLADPGSSDDDDVSSLEEEQEFHMRSKNSLQYSAKEHGMPEKNPAEGNTVFVYNDKKGTEDPGDSHLQWQLNLLTHIENVQNEVTSRMDLIEKEVDVLESWLDFTGELEPPDPLARLPQLKRHIKQLLIDMGKVQQIATLCSV
protein production: not failed
